Experiments:
Assay in all cases: SPR (Biacore T200); Tie2-Fc captured on anti-human IgG (Fc), Fab at 50 nM; mean of 3
[1] = target: T1, Human Tie2 (1-452)r2-Fc (human, UniProt Q02763 23-452)
T1 construct: range 1-452
Method: (§1) SPR analysis was carried out in order to evaluate the binding activity of the human Tie2 (1-452)-Fc chimera protein and 23 mutant proteins thereof to the fully human 2-16A2-Fab.
(§2) For SPR analysis, Biacore T200 (GE Healthcare) was used. An anti-human IgG (Fc) antibody (Human Antibody Capture Kit, GE Healthcare) was fixed onto a CM5 sensor chip. The human Tie2 (1-452)-Fc chimeric protein and 23 mutant proteins thereof, diluted with HBS-EP (GE Healthcare) at 5 μg/mL, were each allowed for immobilization, and the capture-amount was measured. Thereafter, the fully human 2-16A2-Fab diluted with HBS-EP to 50 nM, the binding amount thereof to the human Tie2 (1-452)-Fc chimeric protein and 23 mutant proteins thereof were measured. Further, by dividing the binding amount with the capture-amount, the binding amount of the antibody in the unit immobilized antigen (hereinafter referred to as a binding ratio) was calculated. The arithmetic mean of three experiments and the relative value of the binding ratio of each mutant proteins when the binding ratio of the human Tie2 (1-452)-Fc chimeric protein was taken as 100% are shown in Table 7.

[2] = target: T2, Human Tie2 (1-452)r4-Fc (human, UniProt Q02763 23-452)
T2 construct: range 1-452
Method: as §1, §2

[3] = target: T3, Human Tie2 (1-452)r5-Fc (human, UniProt Q02763 23-452)
T3 construct: range 1-452
Method: as §1, §2

[4] = target: T4, Human Tie2 (1-452)r7-Fc (human, UniProt Q02763 23-452)
T4 construct: range 1-452
Method: as §1, §2

[5] = target: T5, Human Tie2 (1-452)g2-Fc (human, UniProt Q02763 23-452)
T5 construct: range 1-452
Method: as §1, §2

[6] = target: T6, Human Tie2 (1-452)g3-Fc (human, UniProt Q02763 23-452)
T6 construct: range 1-452
Method: as §1, §2

[7] = target: T7, Human Tie2 (1-452)g4-Fc (human, UniProt Q02763 23-452)
T7 construct: range 1-452
Method: as §1, §2

[8] = target: T8, Human Tie2 (1-452)g5-Fc (human, UniProt Q02763 23-452)
T8 construct: range 1-452
Method: as §1, §2

[9] = target: T9, Human Tie2 (1-452)g6-Fc (human, UniProt Q02763 23-452)
T9 construct: range 1-452
Method: as §1, §2

[10] = target: T10, Human Tie2 (1-452)m1-Fc (human, UniProt Q02763 23-452)
T10 construct: range 1-452
Method: as §1, §2

[11] = target: T11, Human Tie2 (1-452)m3-Fc (human, UniProt Q02763 23-452)
T11 construct: range 1-452
Method: as §1, §2

[12] = target: T12, Human Tie2 (1-452)y1-Fc (human, UniProt Q02763 23-452)
T12 construct: range 1-452
Method: as §1, §2

[13] = target: T13, Human Tie2 (1-452)c1-Fc (human, UniProt Q02763 23-452)
T13 construct: range 1-452
Method: as §1, §2

[14] = target: T14, Human Tie2 (1-452)A1-Fc (human, UniProt Q02763 23-452)
T14 construct: range 1-452
Method: as §1, §2

[15] = target: T15, Human Tie2 (1-452)A2-Fc (human, UniProt Q02763 23-452)
T15 construct: range 1-452
Method: as §1, §2

[16] = target: T16, Human Tie2 (1-452)A4-Fc (human, UniProt Q02763 23-452)
T16 construct: range 1-452
Method: as §1, §2

[17] = target: T17, Human Tie2 (1-452)A5-Fc (human, UniProt Q02763 23-452)
T17 construct: range 1-452
Method: as §1, §2

[18] = target: T18, Human Tie2 (1-452)A6-Fc (human, UniProt Q02763 23-452)
T18 construct: range 1-452
Method: as §1, §2

T1 sequence (Q02763 other isoform, or with tags, fused parts or gaps limits assumed, form in doubt): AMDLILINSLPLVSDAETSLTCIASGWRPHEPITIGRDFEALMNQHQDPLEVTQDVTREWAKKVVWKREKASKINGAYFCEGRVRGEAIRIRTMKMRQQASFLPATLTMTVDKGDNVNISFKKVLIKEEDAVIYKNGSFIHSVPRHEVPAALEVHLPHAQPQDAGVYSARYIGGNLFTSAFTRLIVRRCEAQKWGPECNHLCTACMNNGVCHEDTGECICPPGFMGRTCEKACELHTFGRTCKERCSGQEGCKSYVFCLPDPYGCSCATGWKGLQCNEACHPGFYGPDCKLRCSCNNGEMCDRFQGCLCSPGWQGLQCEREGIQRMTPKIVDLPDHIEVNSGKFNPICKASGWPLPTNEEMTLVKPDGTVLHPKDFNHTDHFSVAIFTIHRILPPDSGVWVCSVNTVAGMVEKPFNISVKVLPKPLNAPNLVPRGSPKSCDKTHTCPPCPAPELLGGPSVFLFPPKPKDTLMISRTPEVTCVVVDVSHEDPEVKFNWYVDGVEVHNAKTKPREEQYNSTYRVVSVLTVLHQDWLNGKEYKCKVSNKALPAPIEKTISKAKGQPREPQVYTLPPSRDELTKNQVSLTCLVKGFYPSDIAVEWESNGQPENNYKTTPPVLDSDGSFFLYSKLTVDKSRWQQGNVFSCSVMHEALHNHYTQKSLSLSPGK
T8 sequence (Q02763 other isoform, or with tags, fused parts or gaps limits assumed, form in doubt): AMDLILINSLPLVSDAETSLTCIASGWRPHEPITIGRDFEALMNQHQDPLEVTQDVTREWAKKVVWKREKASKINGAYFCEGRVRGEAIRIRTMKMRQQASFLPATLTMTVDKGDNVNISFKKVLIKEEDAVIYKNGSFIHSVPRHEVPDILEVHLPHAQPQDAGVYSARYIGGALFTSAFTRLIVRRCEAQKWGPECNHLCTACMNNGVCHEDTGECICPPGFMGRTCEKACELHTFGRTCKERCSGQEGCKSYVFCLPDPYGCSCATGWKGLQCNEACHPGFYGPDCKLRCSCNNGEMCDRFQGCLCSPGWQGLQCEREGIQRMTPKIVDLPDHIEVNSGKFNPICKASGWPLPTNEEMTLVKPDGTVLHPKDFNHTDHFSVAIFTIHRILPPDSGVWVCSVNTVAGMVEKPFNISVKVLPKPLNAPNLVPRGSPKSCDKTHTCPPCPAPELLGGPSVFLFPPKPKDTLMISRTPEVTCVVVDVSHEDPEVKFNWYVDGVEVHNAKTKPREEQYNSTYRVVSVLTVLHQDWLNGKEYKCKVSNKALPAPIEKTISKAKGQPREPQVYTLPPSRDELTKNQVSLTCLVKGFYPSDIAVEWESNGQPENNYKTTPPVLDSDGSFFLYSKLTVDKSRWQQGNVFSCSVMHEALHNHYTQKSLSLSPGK
T5 sequence (Q02763 other isoform, or with tags, fused parts or gaps limits assumed, form in doubt): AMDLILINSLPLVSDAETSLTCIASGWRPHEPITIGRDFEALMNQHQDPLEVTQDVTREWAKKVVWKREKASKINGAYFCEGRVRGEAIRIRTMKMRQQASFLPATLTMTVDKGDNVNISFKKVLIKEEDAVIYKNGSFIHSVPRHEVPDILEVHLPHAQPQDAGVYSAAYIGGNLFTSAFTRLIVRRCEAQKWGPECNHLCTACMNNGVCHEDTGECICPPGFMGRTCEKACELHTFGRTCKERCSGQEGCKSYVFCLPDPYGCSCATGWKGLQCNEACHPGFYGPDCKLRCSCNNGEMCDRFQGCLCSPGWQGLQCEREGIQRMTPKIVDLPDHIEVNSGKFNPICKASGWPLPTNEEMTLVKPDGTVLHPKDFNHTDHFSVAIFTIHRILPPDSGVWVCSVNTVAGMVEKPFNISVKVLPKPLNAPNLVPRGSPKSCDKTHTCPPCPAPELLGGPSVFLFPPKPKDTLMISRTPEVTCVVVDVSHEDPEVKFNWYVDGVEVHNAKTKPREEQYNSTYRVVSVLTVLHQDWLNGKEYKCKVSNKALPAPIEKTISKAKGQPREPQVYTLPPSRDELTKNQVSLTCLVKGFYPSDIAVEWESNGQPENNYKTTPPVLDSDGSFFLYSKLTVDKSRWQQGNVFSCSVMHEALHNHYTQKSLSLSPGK
T12 sequence (Q02763 other isoform, or with tags, fused parts or gaps limits assumed, form in doubt): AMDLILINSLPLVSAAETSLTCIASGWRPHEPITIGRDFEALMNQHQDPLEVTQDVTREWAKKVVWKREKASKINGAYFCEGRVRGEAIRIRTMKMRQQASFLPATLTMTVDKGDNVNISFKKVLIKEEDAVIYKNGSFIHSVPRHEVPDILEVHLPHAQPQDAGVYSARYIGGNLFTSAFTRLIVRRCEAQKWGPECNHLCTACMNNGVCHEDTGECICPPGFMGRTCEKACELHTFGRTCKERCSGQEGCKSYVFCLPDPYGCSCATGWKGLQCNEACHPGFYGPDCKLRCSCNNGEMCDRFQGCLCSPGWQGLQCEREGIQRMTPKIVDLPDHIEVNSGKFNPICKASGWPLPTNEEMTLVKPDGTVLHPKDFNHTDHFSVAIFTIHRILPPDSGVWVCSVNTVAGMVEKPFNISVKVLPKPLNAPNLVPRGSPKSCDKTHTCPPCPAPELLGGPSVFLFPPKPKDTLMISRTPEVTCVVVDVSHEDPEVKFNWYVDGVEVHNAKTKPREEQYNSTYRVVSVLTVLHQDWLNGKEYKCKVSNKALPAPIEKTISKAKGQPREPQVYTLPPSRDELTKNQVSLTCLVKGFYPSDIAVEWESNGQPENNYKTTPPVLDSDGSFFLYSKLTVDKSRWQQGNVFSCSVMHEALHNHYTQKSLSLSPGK
T14 sequence (Q02763 other isoform, or with tags, fused parts or gaps limits assumed, form in doubt): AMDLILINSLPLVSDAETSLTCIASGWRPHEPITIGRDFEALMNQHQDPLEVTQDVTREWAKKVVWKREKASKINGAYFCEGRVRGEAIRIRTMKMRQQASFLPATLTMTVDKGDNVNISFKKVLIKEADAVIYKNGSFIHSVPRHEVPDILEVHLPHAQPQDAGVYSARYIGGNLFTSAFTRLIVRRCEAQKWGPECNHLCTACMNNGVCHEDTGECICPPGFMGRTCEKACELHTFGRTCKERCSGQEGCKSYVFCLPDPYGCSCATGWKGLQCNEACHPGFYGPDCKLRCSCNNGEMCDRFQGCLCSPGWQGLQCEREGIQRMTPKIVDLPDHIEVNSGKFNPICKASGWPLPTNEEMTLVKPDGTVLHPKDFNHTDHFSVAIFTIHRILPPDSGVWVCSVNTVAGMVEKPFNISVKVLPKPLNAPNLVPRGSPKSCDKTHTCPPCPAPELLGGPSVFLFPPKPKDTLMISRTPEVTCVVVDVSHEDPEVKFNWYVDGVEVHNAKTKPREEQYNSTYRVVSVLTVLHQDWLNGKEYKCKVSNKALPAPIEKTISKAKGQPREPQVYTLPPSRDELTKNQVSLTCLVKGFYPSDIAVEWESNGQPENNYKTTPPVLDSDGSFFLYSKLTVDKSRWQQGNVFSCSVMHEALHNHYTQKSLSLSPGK
T16 sequence (Q02763 other isoform, or with tags, fused parts or gaps limits assumed, form in doubt): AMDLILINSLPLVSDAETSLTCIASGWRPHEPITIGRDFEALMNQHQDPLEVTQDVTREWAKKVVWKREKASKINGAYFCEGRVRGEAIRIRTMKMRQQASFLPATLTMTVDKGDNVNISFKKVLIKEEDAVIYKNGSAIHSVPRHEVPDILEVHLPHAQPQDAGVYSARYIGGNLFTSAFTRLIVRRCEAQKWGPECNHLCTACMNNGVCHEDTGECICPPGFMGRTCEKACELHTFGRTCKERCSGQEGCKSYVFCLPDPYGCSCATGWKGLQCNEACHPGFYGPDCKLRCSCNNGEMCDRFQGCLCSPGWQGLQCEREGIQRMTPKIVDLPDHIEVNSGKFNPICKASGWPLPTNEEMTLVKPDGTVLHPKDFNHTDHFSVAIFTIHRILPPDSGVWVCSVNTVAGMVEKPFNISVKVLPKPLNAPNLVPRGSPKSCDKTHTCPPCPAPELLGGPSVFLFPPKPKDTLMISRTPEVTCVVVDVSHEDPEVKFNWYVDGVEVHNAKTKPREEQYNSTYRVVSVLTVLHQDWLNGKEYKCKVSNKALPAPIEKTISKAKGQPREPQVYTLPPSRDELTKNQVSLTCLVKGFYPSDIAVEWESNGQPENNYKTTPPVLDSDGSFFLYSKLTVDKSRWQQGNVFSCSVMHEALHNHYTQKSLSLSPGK
T3 sequence (Q02763 other isoform, or with tags, fused parts or gaps limits assumed, form in doubt): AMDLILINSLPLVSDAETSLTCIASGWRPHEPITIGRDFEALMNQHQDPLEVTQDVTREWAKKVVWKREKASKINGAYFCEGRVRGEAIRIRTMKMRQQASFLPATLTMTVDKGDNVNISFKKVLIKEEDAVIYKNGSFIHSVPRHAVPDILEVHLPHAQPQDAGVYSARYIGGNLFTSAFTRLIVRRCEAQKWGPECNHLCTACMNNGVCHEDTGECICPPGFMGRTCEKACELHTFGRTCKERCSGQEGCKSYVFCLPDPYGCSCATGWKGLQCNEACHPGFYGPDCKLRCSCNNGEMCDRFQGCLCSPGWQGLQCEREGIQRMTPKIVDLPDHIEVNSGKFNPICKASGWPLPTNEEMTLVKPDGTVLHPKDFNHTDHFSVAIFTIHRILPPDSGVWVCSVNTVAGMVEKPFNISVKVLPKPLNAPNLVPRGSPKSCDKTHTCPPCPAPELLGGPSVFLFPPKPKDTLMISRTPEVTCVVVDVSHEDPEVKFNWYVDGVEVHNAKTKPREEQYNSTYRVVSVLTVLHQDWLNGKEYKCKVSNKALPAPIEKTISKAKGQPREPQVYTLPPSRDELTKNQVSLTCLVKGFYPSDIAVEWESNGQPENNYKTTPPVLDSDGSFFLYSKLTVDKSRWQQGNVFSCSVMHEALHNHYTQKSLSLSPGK

B1: fully human 2-16A2-Fab (Fab, V domains shown)
VH: EVQLVESGGGLVQPGGSLRLSCAASGFTFDDYAMHWVRQAPGKGLEWVAGISWNSGSIVYADSVKGRFTISRDNSKNTLYLQMNSLRAEDTAVYYCAKDIREQLVEDAFDIWGQGTLVTVSS
VL: DIQMTQSPSSLSASVGDRVTITCRSSQSLLHSHRYNYLDWYQQKPGKAPKLLIYLGSNRASGVPSRFSGSGSGTDFTLTISSVQPEDFATYYCMQTLQTPLTFGQGTKVEIKR
notes: also called Fab of the fully human 2-16A2
**Q.** Which Binding ratio [1] does the source give for B1 here?
**A.** Its Binding ratio is 0.28.

**Q.** What about the “Relative value (%) of binding ratio (human Tie2 (1-452)-Fc chimeric protein = 100%)” value (“Relative value (%) of binding ratio” below) [1] of the same binder?
**A.** Its value is 98%.

**Q.** What about the Binding ratio [2] of the same binder?
**A.** The Binding ratio was 0.33.

**Q.** What about the “Relative value (%) of binding ratio” value [2] of the same binder?
**A.** Its value is 113%.

**Q.** What about the Binding ratio [3] of the same binder?
**A.** Its Binding ratio is 0.29.

**Q.** What about the “Relative value (%) of binding ratio” value [3] of the same binder?
**A.** The value was 99%.

**Q.** What about the Binding ratio [4] of the same binder?
**A.** Its Binding ratio is 0.3.

**Q.** What about the “Relative value (%) of binding ratio” value [4] of the same binder?
**A.** The value was 106%.

**Q.** And the Binding ratio [5]?
**A.** Its Binding ratio is 0.03.

**Q.** And the “Relative value (%) of binding ratio” value [5]?
**A.** Its value is 9%.

**Q.** And the Binding ratio [6]?
**A.** The Binding ratio was 0.06.

**Q.** What about the “Relative value (%) of binding ratio” value [6] of the same binder?
**A.** Its value is 23%.

**Q.** What about the Binding ratio [7] of the same binder?
**A.** Its Binding ratio is 0.02.

**Q.** And the “Relative value (%) of binding ratio” value [7]?
**A.** The value was 7%.

**Q.** What about the Binding ratio [8] of the same binder?
**A.** Its Binding ratio is 0.03.

**Q.** What about the “Relative value (%) of binding ratio” value [8] of the same binder?
**A.** The value was 9%.

**Q.** And the Binding ratio [9]?
**A.** Its Binding ratio is 0.38.

**Q.** What about the “Relative value (%) of binding ratio” value [9] of the same binder?
**A.** Its value is 131%.

**Q.** And the Binding ratio [10]?
**A.** The Binding ratio was 0.31.

**Q.** And the “Relative value (%) of binding ratio” value [10]?
**A.** The value was 107%.

**Q.** And the Binding ratio [11]?
**A.** The Binding ratio was 0.04.

**Q.** And the “Relative value (%) of binding ratio” value [11]?
**A.** The value was 12%.

**Q.** And the Binding ratio [12]?
**A.** Its Binding ratio is 0.25.

**Q.** And the “Relative value (%) of binding ratio” value [12]?
**A.** The value was 87%.

**Q.** What about the Binding ratio [13] of the same binder?
**A.** The Binding ratio was 0.54.

**Q.** What about the “Relative value (%) of binding ratio” value [13] of the same binder?
**A.** Its value is 189%.

**Q.** And the Binding ratio [14]?
**A.** The Binding ratio was 0.1.

**Q.** What about the “Relative value (%) of binding ratio” value [14] of the same binder?
**A.** The value was 34%.

**Q.** And the Binding ratio [15]?
**A.** The Binding ratio was 0.08.

**Q.** And the “Relative value (%) of binding ratio” value [15]?
**A.** Its value is 29%.

**Q.** What about the Binding ratio [16] of the same binder?
**A.** Its Binding ratio is 0.13.

**Q.** What about the “Relative value (%) of binding ratio” value [16] of the same binder?
**A.** The value was 44%.

**Q.** What about the Binding ratio [17] of the same binder?
**A.** Its Binding ratio is 0.39.

**Q.** What about the “Relative value (%) of binding ratio” value [17] of the same binder?
**A.** Its value is 135%.

**Q.** And the Binding ratio [18]?
**A.** Its Binding ratio is 0.31.

**Q.** And the “Relative value (%) of binding ratio” value [18]?
**A.** The value was 109%.

— US20160222130A1 (Astellas, published 2016)
